# B1: TaLcc1: Recombinant Thielavia arenaria ALKO4197 laccase 1 (SEQ ID NO: 12) produced in Trichoderma reesei strains RF5597/RF5598 (protein)
# chain: MKSWAAAVALMVGILSPHAAAAPPANPVQRDMLQVLEARQSGPTCNTPSNRACWTNGFDINTDYEVSTPNTGRTVAYQLTLTEKENWIGPDGVLKNVVMLVNDKIIGPTIRANWGDNIEVTVINNLKTNGTSMHWHGLRQLGNVFNDGANGVTECPIPPKGGRKTYKFRATQYGTSWYHSHFSAQYGNGVVGTIQIDGPASLPYDIDLGVFPLMDYYYRSADELVHFTQSNGAPPSDNVLFNGTARHPETGAGQWYNVTLTPGKRHRLRIINTSTDNHFQVSLVGHNMTVIATDMVPVNAFTVSSLFLAVGQRYDVTIDANSPVGNYWFNVTFGDGLCGSSNNKFPAAIFRYQGAPATLPTDQGLPVPNHMCLDNLNLTPVVTRSAPVNNFVKRPSNTLGVTLDIGGTPLFVWKVNGSAINVDWGKPILDYVMSGNTSYPVSDNIVQVDAVDQWTYWLIENDPTNPIVSLPHPMHLHGHDFLVLGRSPDELPSAGVRHIFDPAKDLPRLKGNNPVRRDVTMLPAGGWLLLAFKTDNPGAWLFHCHIAWHVSGGLSVDFLERPNDLRTQLNSNAKRADRDDFNRVCREWNAYWPTNPFPKIDSGLRHRFVEESEWMVR
# modifications: Thielavia arenaria ALKO4197; (1)..(617) Deduced amino acid sequence of Thielavia arenaria ALKO4197 laccase 1 (Ta Lcc1)
# Assays:
# [1] = Redox potential, Pt-AgCl/KCl microelectrode; format: physicochemical; conditions: pH 5.0
# Method: The purified recombinant Thielavia arenaria TaLcc1 was characterized in terms of pH optimum, thermal stability, and pI as described in Example 2. The molecular weight was determined by MALDI-TOF mass spectrometry on a Ultraflex™ time-of-flight instrument (BrukerDaltonics, Germany) as previously described (Palonen et al., 2003). The redox potential of TaLcc1 was also determined with a combined Pt-AgCl/KCl microelectrode at pH 5.0 according to Sigoillot et al (2004)
# [2] = Denim bleaching: laccase-mediator (100 nkat/g, 5 mg/g, 30 min, 60° C.) compared to sodium hypochlorite (15 min, 40° C.)
# Method: Different types of demin were treated with a TaLcc1 laccase product from Trichoderma strain RF5597 and DeniLite II Base from Novozymes and the results obtained were compared to hypochlorite bleaching. All together 27 pieces of different kinds of denim (whole jeans), which had been previously washed with cellulase after desizing to different abrasion levels or had been only desized with ECOSTONE®A200 (60° C., 10 min), were collected for the test (Table 15). The jeans were made of Indigo dyed denim, except the English jeans contained Indigo dyed denim with sulphur bottom. Jeans were cut in such a way that pieces from the same pair of jeans could be used for all tests.
# The jeans were made of Indigo dyed denim (right hand twill), except the English jeans contained Indigo dyed denim with sulphur bottom. The weights of the original (i.e. not desized) denim fabrics were typically higher than 475 g/m^2 (14 oz/yd^2). The weights of three 10 cm×10 cm pieces were measured after 24 hours incubation at room temperature (ca. 22° C. and at relative moisture ca. 64%).
# The laccase treatments were performed with Electrolux's Wascator FOM 71 CLS washer extractor under optimal conditions for each enzyme, described in Table 16. Methyl syringate (Example 7) was used as a mediator. Laccase was inactivated after draining by raising the pH above 11 by NaOH (10 min, 60° C.) and rinsing for three times. The fabrics were dried in a tumbler.
# The sodium hypochlorite bleaching was performed with Electrolux's Wascator FOM 71 CLS washer extractor using denim obtained from the same jeans as in laccase treatments under conditions described in Table 17. Sodium hydroxide was added before adding 25 ml/l of 10% sodium hypochlorite solution (Klorite Forte, Farmos Oy) to keep the pH above 10.5 during the treatment. After draining the bleach liquor, there was one 2 minutes rinsing step with the liquor ratio of 1:20 before dechlorinating with sodium thiosulphate. After dechlorinating the denim samples were rinsed 3 times for 2 minutes with the liquor ratio of 1:20. The fabrics were dried in a tumbler.
# The bleaching effect was evaluated by measuring the colour as reflectance values as in Example 7. […] Different looks were obtained depending on the type of the denim and cellulase treatment used. “Sulphur-bottom type” denim was the most difficult to bleach.
# [3] = all cellulase treated denim samples
# [4] = sample B1: Basic Jeans, Ecostone P1250
# [5] = sample E1: English jeans (sulphur bottom), desized only
# [6] = sample E2: English jeans, Ecostone NP2000
# [7] = sample E3: English jeans, Rocksoft NCE-EA
# [8] = sample E4: English jeans, Rocksoft NCE-2X
# [9] = sample E5: English jeans, Ecostone L900
# [10] = sample E6: English jeans, Ecostone L900
# [11] = sample E7: English jeans, Ecostone L900
# [12] = sample L1: Lee Cooper jeans, desized only
# [13] = sample L2: Lee Cooper jeans, Ecostone L
# [14] = sample L3: Lee Cooper jeans, Biotouch C29
# [15] = sample L4: Lee Cooper jeans, Ecostone L
# [16] = sample L5: Lee Cooper jeans, Indiage Max L
# [17] = sample L6: Lee Cooper jeans, Indiage Super L
# [18] = sample L7: Lee Cooper jeans, Ecostone CXP500 Exper.
# [19] = sample L8: Lee Cooper jeans, Ecostone CXP experimental
# [20] = sample L9: Lee Cooper jeans, Ecostone N400
# [21] = sample T1: Tincan jeans, desized only
# [22] = sample T2: Tincan jeans, Ecostone N400
# [23] = sample T3: Tincan jeans, Ecostone L300
# [24] = sample T4: Tincan jeans, Denimax 991S
# [25] = sample W1: Warric jeans, desized only
# [26] = sample W2: Warric jeans, Ecostone P4500
# [27] = sample W3: Warric jeans, Indiage Max G
# [28] = sample W4: Warric jeans, Ecostone NP2000
# [29] = sample W5: Warric jeans, Ecostone L900
# [30] = sample W6: Warric jeans, Denabraide MBL 65 E
molecule,measurement,setting,value
B1,E^0,[1],560 mV
same,bleaching better than DeniLite II Base,[2]; [3],55-200%
same,bleaching better than sodium hypochlorite,[2]; [3],60-115%
same,increase of L* better than DeniLite II Base,[2]; fabrics only desized,over 100%
same,increase of L* compared with sodium hypochlorite,[2]; fabrics only desized,equal or better
same,Increase of L*,[2]; [4],17.71
same,L* after treatment,[2]; [4],47.19
same,b* after treatment,[2]; [4],−12.75
same,Increase of L*,[2]; [5],5.24
same,L* after treatment,[2]; [5],22.71
same,b* after treatment,[2]; [5],−13.97
same,Increase of L*,[2]; [6],10.51
same,L* after treatment,[2]; [6],35.99
same,b* after treatment,[2]; [6],−14.08
same,Increase of L*,[2]; [7],11.26
same,L* after treatment,[2]; [7],36.52
same,b* after treatment,[2]; [7],−14.46
same,Increase of L*,[2]; [8],11.75
same,L* after treatment,[2]; [8],38.79
same,b* after treatment,[2]; [8],−13.94
same,Increase of L*,[2]; [9],12.34
same,L* after treatment,[2]; [9],37.53
same,b* after treatment,[2]; [9],−14.03
same,Increase of L*,[2]; [10],11.63
same,L* after treatment,[2]; [10],34.17
same,b* after treatment,[2]; [10],−14.79
same,Increase of L*,[2]; [11],13.16
same,L* after treatment,[2]; [11],36.00
same,b* after treatment,[2]; [11],−14.95
same,Increase of L*,[2]; [12],12.92
same,L* after treatment,[2]; [12],33.13
same,b* after treatment,[2]; [12],−19.41
same,Increase of L*,[2]; [13],19.08
same,L* after treatment,[2]; [13],50.89
same,b* after treatment,[2]; [13],−13.17
same,Increase of L*,[2]; [14],19.21
same,L* after treatment,[2]; [14],47.66
same,b* after treatment,[2]; [14],−14.82
same,Increase of L*,[2]; [15],18.97
same,L* after treatment,[2]; [15],48.39
same,b* after treatment,[2]; [15],−13.83
same,Increase of L*,[2]; [16],19.24
same,L* after treatment,[2]; [16],47.73
same,b* after treatment,[2]; [16],−14.28
same,Increase of L*,[2]; [17],17.17
same,L* after treatment,[2]; [17],46.71
same,b* after treatment,[2]; [17],−14.68
same,Increase of L*,[2]; [18],15.75
same,L* after treatment,[2]; [18],42.95
same,b* after treatment,[2]; [18],−16.23
same,Increase of L*,[2]; [19],17.27
same,L* after treatment,[2]; [19],46.73
same,b* after treatment,[2]; [19],−14.86
same,Increase of L*,[2]; [20],16.22
same,L* after treatment,[2]; [20],45.02
same,b* after treatment,[2]; [20],−14.91
same,Increase of L*,[2]; [21],9.80
same,L* after treatment,[2]; [21],34.82
same,b* after treatment,[2]; [21],−16.36
same,Increase of L*,[2]; [22],14.50
same,L* after treatment,[2]; [22],42.70
same,b* after treatment,[2]; [22],−14.60
same,Increase of L*,[2]; [23],18.01
same,L* after treatment,[2]; [23],47.09
same,b* after treatment,[2]; [23],−14.04
same,Increase of L*,[2]; [24],16.37
same,L* after treatment,[2]; [24],43.53
same,b* after treatment,[2]; [24],−15.18
same,Increase of L*,[2]; [25],10.51
same,L* after treatment,[2]; [25],28.54
same,b* after treatment,[2]; [25],−17.55
same,Increase of L*,[2]; [26],16.04
same,L* after treatment,[2]; [26],42.16
same,b* after treatment,[2]; [26],−14.48
same,Increase of L*,[2]; [27],15.53
same,L* after treatment,[2]; [27],44.08
same,b* after treatment,[2]; [27],−13.66
same,Increase of L*,[2]; [28],13.32
same,L* after treatment,[2]; [28],39.54
same,b* after treatment,[2]; [28],−14.72
same,Increase of L*,[2]; [29],16.52
same,L* after treatment,[2]; [29],40.49
same,b* after treatment,[2]; [29],−15.38
same,Increase of L*,[2]; [30],15.57
same,L* after treatment,[2]; [30],39.58
same,b* after treatment,[2]; [30],−15.62
